US8841274B2, “Protein arginine N-methyltransferase-5 method of cancer treatment” (priority 2009, dated 2014)

Experiments:
[1] = molecular target: T1, PRMT5 (Homo sapiens, UniProt O14744); experiment: GST binding assay with U2OS cell lysate, PRMT5 immunoblot; design: The indicated GST proteins were incubated with U2OS cell lysate; endogenous in cells; host or cells: U2OS; conditions: GST-E2F-1 proteins incubated with U2OS cell lysate
Experimental: It was then assessed whether E2F-1 could interact with PRMT5 and thereafter the role of each R residue in mediating the interaction. […] The indicated GST proteins were incubated with U2OS cell lysate, and bound proteins immunoblotted using anti-GST (for input GST), DP-1 or PRMT5 antibodies. Binding to DP-1, the major heterodimeric partner for E2F-1 (Stevens and La Thangue 2003), served as a control since it bound equally to each of the E2F-1 proteins.
GST or GST tagged proteins (10 μg each) were incubated with agarose beads and damaged or undamaged U2OS cell lysates for 3 h. Beads were then washed with TNN buffer 3 times. SDS sample buffer was added to beads and samples were analysed by immunoblotting.
Target sequence in this assay (O14744 whole entry): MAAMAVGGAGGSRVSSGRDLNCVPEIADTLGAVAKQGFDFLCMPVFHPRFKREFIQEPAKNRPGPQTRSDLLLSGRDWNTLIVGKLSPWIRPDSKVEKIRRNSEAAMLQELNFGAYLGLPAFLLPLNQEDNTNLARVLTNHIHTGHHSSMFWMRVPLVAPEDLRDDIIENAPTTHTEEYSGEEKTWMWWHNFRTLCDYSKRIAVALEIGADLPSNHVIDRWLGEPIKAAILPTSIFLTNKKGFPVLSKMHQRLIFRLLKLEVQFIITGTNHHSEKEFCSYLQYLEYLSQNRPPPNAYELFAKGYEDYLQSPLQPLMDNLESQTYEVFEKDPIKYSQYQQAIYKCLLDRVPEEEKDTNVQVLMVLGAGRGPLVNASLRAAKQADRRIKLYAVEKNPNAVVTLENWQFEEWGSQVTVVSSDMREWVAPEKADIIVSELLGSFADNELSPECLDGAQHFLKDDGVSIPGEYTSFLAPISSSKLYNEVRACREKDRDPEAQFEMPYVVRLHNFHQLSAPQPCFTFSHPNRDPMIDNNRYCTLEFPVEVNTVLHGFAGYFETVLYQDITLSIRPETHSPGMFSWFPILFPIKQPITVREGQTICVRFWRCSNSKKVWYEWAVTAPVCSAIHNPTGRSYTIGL

[2] = test system: p73-luciferase or cyclinE-luciferase; experiment: Reporter assay with E2F-responsive promoters; type: cell-based; conditions: U2OS cells, 48 h, equivalent protein level; compared to wild-type E2F-1; n=3
Experimental: To further explore the role of arginine methylation in the transcription properties of E2F-1, wild-type E2F-1 was compared with the KK and KKK mutants in a reporter-based transfection assay, using E2F-responsive promoters derived from E2F target genes. The assay was performed under conditions in which each mutant protein was expressed at an equivalent level to wild-type E2F-1 (FIG. 4aii and bii), thus ruling out any difference in activity that could be attributed to protein levels. […] FIGS. 4a and b show the transcription properties of wild-type E2F-1, KK and KKK mutants. U2OS cells were transfected with expression vectors encoding WT or mutant E2F-1 protein, together with p73-luciferase (A) or cyclinE-luciferase (B) for 48 h as indicated, and pCMV-βgal to monitor transfection efficiency. Relative luciferase activity (luciferase/βgal) is shown together with expression level of ectopic proteins; n=3. […] PRMT5 (P) or control (C) non-targeting siRNA was transfected into U2OS cells together with p73-luciferase (i) or cyclinE-luciferase (ii) for 48 h, together with pCMV-βgal to monitor transfection efficiency. Relative luciferase activity is shown together with expression level of the ectopic proteins.
Cells were transfected with expression vectors (1 μg) encoding WT or the mutant E2F-1 proteins as indicated with E2F responsive luciferase reporters, namely p73-luciferase or cyclinE-luciferase, together with pCMV-βgal to monitor transfection efficiency. Cells were harvested, lysed 48 h post-transfection and luciferase activity measured as previously described (Janson et al 2008).

[3] = molecular target: T1, PRMT5; experiment: In vitro methyltransferase assay of E2F-1 proteins; type: biochemical; design: made in house; host or cells: U2OS cells (transient transfection, anti-Flag immunoprecipitation, elution); conditions: about 1 μg protein, 3H labeled SAM; mutants compared with wild-type E2F-1
Experimental: To assess whether the RGRGR motif was a direct target for PRMT5 methylation, a series of mutant derivatives of E2F-1 were made in which each arginine (R) residue was substituted with a lysine residue (K; FIG. 1a), and the ability of the mutant derivative to be methylated in vitro then assessed. […] In FIG. 1b(i) each of the indicated proteins (about 1 μg) was used in the methylation reaction. In vitro methylated samples were analysed by SDS-PAGE as described below. E2F-1 is indicated. In FIG. 1b(ii) samples in FIG. 1b(i) were counted (3H cpm as indicated). Histones treated with PRMT5 served as the positive control. The data shown provide one example taken from two different experiments.
Flag-PRMT5 plasmid was transfected into U2OS cells for 48 h. Cells were lysed and Flag-PRMT5 was immunoprecipitated with agarose beads and then eluted. The elute was mixed with recombinant substrates (GST fusion proteins or histones) in methylation reaction buffer (50 mM Tris, 0.1 mM EDTA, 50 mM NaCl) with ^3H labeled SAM (as —CH3 group donor) to a volume of 40 μl and incubated at 30° C. for 90 min. Half of the reactions were then spotted onto p81 membrane circles (Whatman) and air dried. The membranes were then washed three times, 5 min each in 50 ml of wash buffer (46 mM NaHCO3, 4 mM Na2CO3, pH 9.2). After washing briefly with acetone, membranes were air dried, placed in scintillation vials, immersed in scintillation fluid (Beckman Coulter) and disintegrations per minute (DPM) measured in a scintillation counter. The other half of the reactions were run on SDS-PAGE gel and used to detect ^3H auto-radioisotope/methylation signal.
Target sequence in this assay (O14744 whole entry): as above
Target sequence in this assay (Q9BQA1 whole entry partner): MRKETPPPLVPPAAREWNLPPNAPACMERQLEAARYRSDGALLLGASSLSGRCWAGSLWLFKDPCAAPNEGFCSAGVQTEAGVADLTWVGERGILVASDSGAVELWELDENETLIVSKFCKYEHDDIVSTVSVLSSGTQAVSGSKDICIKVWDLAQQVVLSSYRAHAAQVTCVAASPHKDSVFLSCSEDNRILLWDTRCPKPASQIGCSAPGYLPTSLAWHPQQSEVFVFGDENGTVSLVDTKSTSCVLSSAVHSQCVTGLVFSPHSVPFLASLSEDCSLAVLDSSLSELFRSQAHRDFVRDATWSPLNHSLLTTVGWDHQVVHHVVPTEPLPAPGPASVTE

[4] = test system: U2OS cells; experiment: Apoptosis (sub-G1) by FACS in U2OS cells; type: cell-based; conditions: U2OS cells, expression vectors 48 h; relative to wild-type E2F-1; n=2
Experimental: Whether arginine methylation influences E2F-1-dependent apoptosis was investigated by comparing the ability of wild-type E2F-1 to the KK and KKK mutants to induce cells with a sub-G1 DNA content (Stevens et al 2003). […] U2OS cells were transfected with expression vectors encoding wild-type E2F-1, KK and KKK as indicated for 48 h and analysed by FACS as described. The graph represents the relative change in sub-G1 populations compared to the empty vector control treatment; n=2.
The graph (i) represents the relative number of sub-G I cells (compared to the control treatment) in the indicated conditions; and (ii) the level of PRMT5 and E2F-1; n=3.
PRMT5 (P) or control (C) non-targeting siRNA (25 nM) was transfected into HCT116 p53+/+ (i), HCT116 p53−/− (ii) or U2OS (iii) cells and the cells were harvested 72 h post-transfection and analysed by FACS. The graph represents the actual number of sub-G1 cells in the indicated conditions, and the immunoblot the level of PRMT5 and actin control; n=3.
PRMT5 (P), E2F-1 (E) or control (C) non-targeting siRNA was transfected into U2OS cells and harvested 72 h post-transfection and analysed by FACS as described.
Cells were transfected with the indicated expression vectors together with pBB14-GFP (for 48 h) to monitor transfection efficiency or siRNA (for 48 h or 72 h) with or without treatment of the DNA damage agent for the last 16 h. Then, cells were fixed and stained with propidium iodide and analyzed by Flow Cytometry.

[5] = molecular target: T2, DP-1 (Homo sapiens, UniProt Q14186); experiment: Co-immunoprecipitation of ectopic E2F-1 with DP-1 in U2OS cells; type: cell-based; conditions: expression vector transfected into U2OS cells, HA11 IP
T2 construct: endogenous in cells; host or cells: U2OS
T2 sequence (Q14186 1-410): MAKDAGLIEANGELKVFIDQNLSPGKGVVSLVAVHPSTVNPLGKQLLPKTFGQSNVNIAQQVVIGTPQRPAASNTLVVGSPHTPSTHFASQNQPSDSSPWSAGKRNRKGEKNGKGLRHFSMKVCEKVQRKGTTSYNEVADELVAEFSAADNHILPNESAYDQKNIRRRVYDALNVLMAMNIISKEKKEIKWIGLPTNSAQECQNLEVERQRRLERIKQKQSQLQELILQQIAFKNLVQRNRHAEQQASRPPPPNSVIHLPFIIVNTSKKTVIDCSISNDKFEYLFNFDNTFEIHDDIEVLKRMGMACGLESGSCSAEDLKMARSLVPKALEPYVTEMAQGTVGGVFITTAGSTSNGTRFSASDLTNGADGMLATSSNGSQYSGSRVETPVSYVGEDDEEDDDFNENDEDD
From the text: (§1) To establish whether E2F-1 was able to bind to PRMT5 in cells, the interaction between ectopic wild-type E2F-1 or KKK with PRMT5 was studied. […] Either a wild-type E2F-1 expression vector or a KKK expression vector was transfected into U2OS cells, and HA11 antibody was used for immunoprecipitation (IP) followed by immunoblotting with HA11 (E2F-1), PRMT5 or DP-1 as indicated. The level of input (In) protein is indicated. […] In contrast, binding to DP-1 was equivalent for both wild-type E2F-1 and KKK. […] Further, the RGRGR motif is necessary for the interaction, which also encompasses the site of PRMT5 methylation.
(§2) Cells were either left untransfected or transfected with expression vectors as indicated. At 48 h post transfection, cells were harvested in TNN buffer (50 mM Tris-HC1 [pH 7.4], 150 mM NaCl, 5 mM EDTA, 0.5% Ipegal, 50 mM NaF, 0.2 mM sodium orthovanadate and protease inhibitor cocktail (1 mM PMSF, leupeptin [1 μg/ml], aprotinin [1 μg/m1], and pepstatin A [1 μg/ml])) and rotated at 4° C. for 30 min to 1 h. The cell lysate was then homogenised, centrifuged at 11000 rpm for 10 min to remove cell debris and the supernatant collected. All lysates were normalized for protein concentration and, where appropriate, for transfection by β-galactosidase activity. […] Enhanced chemi-luminescence (Pierce Biotechnology, Rockford, Ill.) was used to visualize antibody binding.

[6] = molecular target: T1, PRMT5; experiment: Co-immunoprecipitation of ectopic E2F-1 with PRMT5 in U2OS cells; type: cell-based; design: The indicated GST proteins were incubated with U2OS cell lysate; endogenous in cells; host or cells: U2OS; conditions: expression vector transfected into U2OS cells, HA11 IP
From the text: as §1, §2
Target sequence in this assay (O14744 whole entry): as the sequence (O14744 whole entry) above

| binding to PRMT5 [1] | transcriptional activity (relative luciferase activity) [2] | in vitro methylation by PRMT5 [3] | binding to DP-1 in cells [5] | co-immunoprecipitation with PRMT5 [6] | Substance | apoptosis (sub-G1 population) [4] |
| --- | --- | --- | --- | --- | --- | --- |
| compromised PRMT5 binding |  | greater level of reduction |  |  | R111K: mutant E2F-1 with arginine 111 substituted with lysine |  |
| compromised PRMT5 binding |  | greater level of reduction |  |  | R113K: mutant E2F-1 with arginine 113 substituted with lysine |  |
| bound to PRMT5 |  | could be methylated in vitro | equivalent | co-immunoprecipitated with PRMT5 | wild-type E2F-1: E2F-1 protein, SEQ ID NO:3, used as GST fusion or HA-tagged expression vector |  |

The next lines start with the substance.

| Substance | binding to PRMT5 [1] | transcriptional activity (relative luciferase activity) [2] | in vitro methylation by PRMT5 [3] | binding to DP-1 in cells [5] | co-immunoprecipitation with PRMT5 [6] | apoptosis (sub-G1 population) [4] |
| --- | --- | --- | --- | --- | --- | --- |
| KK: methylation-defective E2F-1 protein containing the mutations R111K and R113K | completely devoid of PRMT5 binding | increased transcriptional activity | could not be methylated by PRMT5 |  |  | increased levels of apoptosis |
| R109K: mutant E2F-1 with arginine 109 substituted with lysine | significant PRMT5 binding activity |  | reduced methylation |  |  |  |
